The DeepSol protein solubility set

Assay: soluble on expression in E. coli; label from the status in PepcDB or PDB records

Sequence	soluble on expression in E. coli
MNRVDLSIFIPDSLTAETGDLKIKTYKVVLIARAASIFGVKRIVIYHDDADGEARFIRDILTYMDTPQYLRRKVFPIMRELKHVGILPPLRTPHHPTGKPVTGEYRQGLTVKRVKKGTLVDIGADKLALCREKLTVNRIMSFRVVRLGKEILIEPDEPEDRYWGYEVLDTRRNLAESLKTVGADVVVATSRNASPITSILDEVKTRMRGAREAAILFGGPYKGLPEIDADIWVNTLPGQCTETVRTEEAVLATLSVFNMLTQIDEKDE	soluble
MILLKSEHGGKRKEMRQDDLMGPNHFSLRIMYKIIIYTYPVSLYAVKELNLSKTFSISALGILNSNSNRSPAKKQTFFSACVAKSYSSFFISICILDLASHL	soluble
SLRQDELKELERAIAEITEIAEGFGLDFYPMRYEICPADILYTFGAYGMPTRFSHWSFGKQFYKMKLHYDLGLSKIYELVINSDPCYAFLLDTNTLIQNKLIVAHVLAHSDFFKNNVRFSNTKRDMVESMAATAERIKHYEHQYGKLEVEKFLDAVLAIQEHIDPSLLRPKLSWTWEDTEVYEEEEPPKTSTPYDDLWSLDERDKLKTPPRKKRRKFPPQPEKDVLLFIEEYSRELEDWQRDILTMMREEMLYFWPQLETKIMNEG	not soluble
MITVLRINHRPYRDKRITTHVALTARAFGASAILVDERDETLENTIRGVISNFGGSFSIKTGCNWIQEFKHFQGIRVHLTMYGRRINDVIDEIRNSGKDVMVLVGSEKVPIEAYEIADYNVSVTNQPISEVSALAIFLDRYFQGKEFEFEFRGRINVQPAERGKIVKIIPDEIECLDLLKKYGASEQLIEHVKAVEGLALKIAERCNADKRVIVAGSLLHDIGRTRTNGIDHAVAGAEILRSENIHDSVVSAVERHIGAGITREEAARLGLPEKDYVPETLEEMIVAQADNLFAGNKRLRLEEVLNIYRKRGLDSAAERIKELHRRISAIAGIDIDEIRLEHHHHHH	soluble
TADVRTAENMGVRAYTVATAITFQGSGSYRGERWVDSADIIRQIESLSAEMEPAVAKIGLIRDSDTLSLVVDCLKKVFPSIRIVWDPVLRASADSSAGQADRFNLEDITALSRIDFITPNLPEARHLLGCEPDDETLLDFYRRSGVGLVLKGGHAGESVVTDRIVYDGRCEALRLLRGGTGKHGTGCAHSTAFAAALALEQEPFTAAGMAQLYVSRLRERASGLLAMHKDLPVDPVVR	not soluble
MSLSRLVVVSNRIAPPDEHAASAGGLAVGILGALKAAGGLWFGWSGETGNEDQPLKKVKKGNITWASFNLSEQDLDEYYNQFSNAVLWPAFHYRLDLVQFQRPAWDGYLRVNALLADKLLPLLQDDDIIWIHDYHLLPFAHELRKRGVNNRIGFFLHIPFPTPEIFNALPTYDTLLEQLCDYDLLGFQTENDRLAFLDCLSNLTRVTTRSAKSHTAWGKAFRTEVYPIGIEPKEIAKQAAGPLPPKLAQLKAELKNVQNIFSVERLDYSKGLPERFLAYEALLEKYPQHHGKIRYTQIAPTSRGDVQAYQDIRHQLENEAGRINGKYGQLGWTPLYYLNQHFDRKLLMKIFRYSDVGLVTPLRDGMNLVAKEYVAAQDPANPGVLVLSQFAGAANELTSALIVNPYDRDEVAAALDRALTMSLAERISRHAEMLDVIVKNDINHWQECFISDLKQIVPRSAESQQRDKVATFPKLAEGGSHHHHHH	soluble
QQEVYGMMPRDETDSKTASASPWKSARLMVHTVATFNSIKER	soluble
MNDDKLRSLFASLATLTQQGPIPVQAYSMLAGQHSTEVLAEHMRLRWLSDGRFGPVAANILMHIHKSDPKDISLSSNVLALLLNDYRNRLSVRNDSRLMFRNCVKTLFSMYPVYVKMDECVSKCFIKPMFSSLDALIDDAPDTEDLETAGILLSENGRVLHDLNSYLVERIIVKLRHKLISEDPIVTKHVRQIFIHVYDLWAFGWSELNIPECLLTLSAEGKLSIVDQTPLRKNDISKQEFGSKESIV	not soluble
QNYSIERDVRLAPGEHFQIEGYDFYFSGLRDKDGPNYDGYIADFEITHDGKYINTLHAEKRFYRTAKSMMTEAAIDRGITRDLYIAMGERLDDNRSWAVRIYYKPFVR	not soluble
